Holding throughout (assay): ELISA, antigen coated at 2 ug/mL
Experiment [1] addresses CoV-2 RBD (N354D) (SARS-CoV-2) (UniProt P0DTC2).
The target in experiment [2] is CoV-2 RBD (N354D, D364Y) (SARS-CoV-2) (UniProt P0DTC2).
Experiment [3] has as its target CoV-2 RBD (V367F) (SARS-CoV-2) (UniProt P0DTC2).
The target in experiment [4] is CoV-2 RBD (W436R) (SARS-CoV-2) (UniProt P0DTC2).
Experiment [5] addresses CoV-2 S (D614G) (SARS-CoV-2) (UniProt P0DTC2).
For experiment [6], the target named is CoV-2 S (R683A, R685A) (SARS-CoV-2) (UniProt P0DTC2).

For orientation: EC50 means the concentration needed to bring the measured effect to its halfway point. Read a low EC50 as a more potent agent. On to “SARS CoV-2 mAb [SAD-S35] (Acro Biosystems) (antibody)”, for which the EC50 in experiment [1] turned out to be 0.04 µg/mL; in experiment [2] it was 0.05 µg/mL; in experiment [3], 0.04 µg/mL; in experiment [4] it was 0.04 µg/mL; in experiment [5] it was 0.03 µg/mL; in experiment [6], 0.05 µg/mL.

Turning to “rCIG (recombinant coronavirus-2 immune globulin; recombinant anti-coronavirus 19 hyperimmune gammaglobulin)”, the EC50 in experiment [1] was 0.07 µg/mL; in experiment [2] it was 0.08 µg/mL; in experiment [3] it was 0.07 µg/mL; in experiment [4] it was 0.07 µg/mL; in experiment [5] it was 0.05 µg/mL; in experiment [6] it was 0.09 µg/mL.

The record behind these values is patent publication US12404607.
